PMC3413154

Experiments:
Experiment in all cases: EMSA
[1] = target: T1, A1 L2BD;L2 RNA-editing ligase (full length, mature) (Trypanosoma brucei;Trypanosoma brucei, UniProt Q95W15;P86925 196-331;21-416, |)
T1 sequence 1: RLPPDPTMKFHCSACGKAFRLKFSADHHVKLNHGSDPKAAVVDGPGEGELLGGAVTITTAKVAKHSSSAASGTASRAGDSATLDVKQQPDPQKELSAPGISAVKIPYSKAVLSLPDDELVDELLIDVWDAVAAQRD
T1 sequence 2: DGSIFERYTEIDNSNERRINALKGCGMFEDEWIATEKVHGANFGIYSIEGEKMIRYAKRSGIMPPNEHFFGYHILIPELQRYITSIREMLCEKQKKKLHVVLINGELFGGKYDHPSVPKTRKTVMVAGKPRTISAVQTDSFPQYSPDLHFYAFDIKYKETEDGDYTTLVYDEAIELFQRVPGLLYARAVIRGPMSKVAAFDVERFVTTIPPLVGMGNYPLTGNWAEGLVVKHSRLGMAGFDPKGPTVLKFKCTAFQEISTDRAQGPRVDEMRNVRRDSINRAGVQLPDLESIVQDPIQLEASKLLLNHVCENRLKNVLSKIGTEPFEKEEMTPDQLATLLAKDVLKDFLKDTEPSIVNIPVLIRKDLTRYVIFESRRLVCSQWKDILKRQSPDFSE

[2] = target: T2, A1 (full length, mature);L2 A1BD (Trypanosoma brucei;Trypanosoma brucei, UniProt Q95W15;P86925 196-762;308-416, |)
T2 sequence 1: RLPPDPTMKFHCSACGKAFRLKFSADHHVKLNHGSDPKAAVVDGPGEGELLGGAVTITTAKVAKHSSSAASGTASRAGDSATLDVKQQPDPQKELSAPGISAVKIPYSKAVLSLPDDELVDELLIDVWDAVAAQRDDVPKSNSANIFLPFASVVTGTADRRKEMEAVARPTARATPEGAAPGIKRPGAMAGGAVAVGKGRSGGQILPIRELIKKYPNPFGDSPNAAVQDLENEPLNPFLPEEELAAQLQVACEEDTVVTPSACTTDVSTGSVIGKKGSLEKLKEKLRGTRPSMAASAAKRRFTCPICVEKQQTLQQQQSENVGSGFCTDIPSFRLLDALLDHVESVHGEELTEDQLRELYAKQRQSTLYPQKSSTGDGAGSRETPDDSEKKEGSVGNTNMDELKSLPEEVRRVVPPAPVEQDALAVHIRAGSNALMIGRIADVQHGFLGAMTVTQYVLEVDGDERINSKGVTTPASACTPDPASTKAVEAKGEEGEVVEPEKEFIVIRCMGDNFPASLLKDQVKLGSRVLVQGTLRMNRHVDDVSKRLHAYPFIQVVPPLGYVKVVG
T2 sequence 2: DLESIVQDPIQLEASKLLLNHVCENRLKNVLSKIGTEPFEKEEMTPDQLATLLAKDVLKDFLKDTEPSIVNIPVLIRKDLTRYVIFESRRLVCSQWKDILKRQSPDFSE

[3] = target: T3, A1 (full length, mature);L2 RNA-editing ligase (full length, mature) (Trypanosoma brucei;Trypanosoma brucei, UniProt Q95W15;P86925 196-762;21-416, |)
T3 sequence 1: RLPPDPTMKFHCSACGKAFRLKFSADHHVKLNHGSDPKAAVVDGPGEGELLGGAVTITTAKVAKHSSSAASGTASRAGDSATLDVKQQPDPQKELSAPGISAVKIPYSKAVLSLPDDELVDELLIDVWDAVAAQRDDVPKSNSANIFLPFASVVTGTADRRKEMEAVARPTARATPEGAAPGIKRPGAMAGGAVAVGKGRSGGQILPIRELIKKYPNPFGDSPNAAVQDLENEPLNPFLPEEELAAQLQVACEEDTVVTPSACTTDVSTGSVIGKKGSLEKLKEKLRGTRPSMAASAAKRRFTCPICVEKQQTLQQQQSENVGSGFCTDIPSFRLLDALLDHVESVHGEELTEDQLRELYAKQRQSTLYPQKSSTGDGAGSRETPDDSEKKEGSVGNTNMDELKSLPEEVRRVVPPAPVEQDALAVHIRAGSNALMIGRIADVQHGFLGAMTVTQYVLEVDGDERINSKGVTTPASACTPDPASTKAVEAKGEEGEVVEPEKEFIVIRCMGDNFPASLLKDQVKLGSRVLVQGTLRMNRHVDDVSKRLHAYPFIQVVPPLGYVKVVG
T3 sequence 2: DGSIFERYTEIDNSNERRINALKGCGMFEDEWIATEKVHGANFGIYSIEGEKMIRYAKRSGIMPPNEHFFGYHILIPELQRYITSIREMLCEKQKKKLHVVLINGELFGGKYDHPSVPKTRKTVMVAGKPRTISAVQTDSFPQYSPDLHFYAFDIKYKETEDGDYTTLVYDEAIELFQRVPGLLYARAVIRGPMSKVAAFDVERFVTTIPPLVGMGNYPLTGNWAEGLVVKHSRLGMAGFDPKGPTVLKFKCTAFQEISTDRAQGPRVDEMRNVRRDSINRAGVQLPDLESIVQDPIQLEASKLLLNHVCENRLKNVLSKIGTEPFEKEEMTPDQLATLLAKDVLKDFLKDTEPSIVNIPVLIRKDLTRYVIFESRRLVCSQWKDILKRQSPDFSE

[4] = target: T4, A1 R734E;L2 RNA-editing ligase (full length, mature) (Trypanosoma brucei;Trypanosoma brucei, UniProt Q95W15;P86925 196-762;21-416, R734E|)
T4 sequence 1: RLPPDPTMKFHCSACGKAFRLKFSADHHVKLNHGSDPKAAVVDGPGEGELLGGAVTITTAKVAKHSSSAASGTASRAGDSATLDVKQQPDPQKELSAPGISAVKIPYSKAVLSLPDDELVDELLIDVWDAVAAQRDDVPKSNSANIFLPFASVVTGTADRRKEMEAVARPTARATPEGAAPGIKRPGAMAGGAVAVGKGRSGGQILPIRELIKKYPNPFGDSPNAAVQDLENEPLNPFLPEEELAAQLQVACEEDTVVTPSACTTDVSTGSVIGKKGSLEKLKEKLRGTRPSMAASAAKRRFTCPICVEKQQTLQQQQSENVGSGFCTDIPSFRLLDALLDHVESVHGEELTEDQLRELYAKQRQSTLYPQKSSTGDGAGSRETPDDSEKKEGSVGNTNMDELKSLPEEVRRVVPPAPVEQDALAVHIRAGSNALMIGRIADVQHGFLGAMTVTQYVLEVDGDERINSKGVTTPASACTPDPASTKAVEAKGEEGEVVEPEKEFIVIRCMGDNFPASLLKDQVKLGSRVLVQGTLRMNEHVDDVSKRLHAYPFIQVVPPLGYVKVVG
T4 sequence 2: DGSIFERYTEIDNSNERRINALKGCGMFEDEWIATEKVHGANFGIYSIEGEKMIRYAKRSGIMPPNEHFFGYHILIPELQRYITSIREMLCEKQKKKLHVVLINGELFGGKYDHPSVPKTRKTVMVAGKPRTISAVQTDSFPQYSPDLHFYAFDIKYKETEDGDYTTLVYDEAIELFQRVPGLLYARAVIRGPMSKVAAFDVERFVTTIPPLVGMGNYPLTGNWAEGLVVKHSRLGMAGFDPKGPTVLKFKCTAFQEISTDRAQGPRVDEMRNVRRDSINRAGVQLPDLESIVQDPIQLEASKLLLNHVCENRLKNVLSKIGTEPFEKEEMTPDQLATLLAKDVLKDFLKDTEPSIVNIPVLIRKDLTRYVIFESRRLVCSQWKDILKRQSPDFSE

[5] = target: T5, A1 R731E;L2 RNA-editing ligase (full length, mature) (Trypanosoma brucei;Trypanosoma brucei, UniProt Q95W15;P86925 196-762;21-416, R731E|)
T5 sequence 1: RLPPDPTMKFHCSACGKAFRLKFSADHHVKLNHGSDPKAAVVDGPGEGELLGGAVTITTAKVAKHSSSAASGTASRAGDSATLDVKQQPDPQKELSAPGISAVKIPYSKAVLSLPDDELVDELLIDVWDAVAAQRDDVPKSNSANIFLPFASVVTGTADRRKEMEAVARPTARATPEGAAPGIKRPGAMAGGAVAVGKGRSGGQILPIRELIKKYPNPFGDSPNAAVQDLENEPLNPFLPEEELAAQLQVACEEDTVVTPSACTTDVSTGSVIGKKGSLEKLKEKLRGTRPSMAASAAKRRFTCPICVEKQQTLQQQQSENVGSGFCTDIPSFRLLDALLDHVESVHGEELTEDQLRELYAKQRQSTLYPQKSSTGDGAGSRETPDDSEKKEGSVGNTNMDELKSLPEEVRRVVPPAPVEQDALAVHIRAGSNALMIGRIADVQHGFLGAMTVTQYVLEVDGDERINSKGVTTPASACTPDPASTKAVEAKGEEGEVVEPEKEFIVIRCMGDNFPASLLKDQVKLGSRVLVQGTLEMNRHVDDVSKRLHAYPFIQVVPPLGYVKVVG
T5 sequence 2: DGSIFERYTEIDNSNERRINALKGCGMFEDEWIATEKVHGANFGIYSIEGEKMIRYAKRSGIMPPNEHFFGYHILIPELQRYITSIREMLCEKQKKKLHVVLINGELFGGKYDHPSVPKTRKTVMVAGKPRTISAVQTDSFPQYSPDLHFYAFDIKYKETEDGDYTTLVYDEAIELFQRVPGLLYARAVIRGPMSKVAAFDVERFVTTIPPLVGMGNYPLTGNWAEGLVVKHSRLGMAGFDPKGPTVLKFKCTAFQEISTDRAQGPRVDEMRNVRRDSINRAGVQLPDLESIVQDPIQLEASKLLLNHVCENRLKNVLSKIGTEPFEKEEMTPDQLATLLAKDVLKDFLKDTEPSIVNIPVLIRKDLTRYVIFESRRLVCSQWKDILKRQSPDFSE

[6] = target: T6, A1 R703E;L2 RNA-editing ligase (full length, mature) (Trypanosoma brucei;Trypanosoma brucei, UniProt Q95W15;P86925 196-762;21-416, R703E|)
T6 sequence 1: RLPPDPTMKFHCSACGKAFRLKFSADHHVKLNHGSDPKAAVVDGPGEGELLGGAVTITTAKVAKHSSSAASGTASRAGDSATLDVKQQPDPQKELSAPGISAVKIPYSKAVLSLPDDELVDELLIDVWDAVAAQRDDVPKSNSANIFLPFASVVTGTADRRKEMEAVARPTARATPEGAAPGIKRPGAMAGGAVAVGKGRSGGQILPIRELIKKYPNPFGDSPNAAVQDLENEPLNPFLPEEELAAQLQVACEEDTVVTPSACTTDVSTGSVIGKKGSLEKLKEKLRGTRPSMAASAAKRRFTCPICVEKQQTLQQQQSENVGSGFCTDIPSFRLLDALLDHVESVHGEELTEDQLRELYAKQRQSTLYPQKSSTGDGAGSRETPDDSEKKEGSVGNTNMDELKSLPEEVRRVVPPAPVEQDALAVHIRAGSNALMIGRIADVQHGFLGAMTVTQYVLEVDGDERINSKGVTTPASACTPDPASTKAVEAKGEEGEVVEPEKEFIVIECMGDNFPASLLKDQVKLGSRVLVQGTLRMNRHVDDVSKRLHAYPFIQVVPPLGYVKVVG
T6 sequence 2: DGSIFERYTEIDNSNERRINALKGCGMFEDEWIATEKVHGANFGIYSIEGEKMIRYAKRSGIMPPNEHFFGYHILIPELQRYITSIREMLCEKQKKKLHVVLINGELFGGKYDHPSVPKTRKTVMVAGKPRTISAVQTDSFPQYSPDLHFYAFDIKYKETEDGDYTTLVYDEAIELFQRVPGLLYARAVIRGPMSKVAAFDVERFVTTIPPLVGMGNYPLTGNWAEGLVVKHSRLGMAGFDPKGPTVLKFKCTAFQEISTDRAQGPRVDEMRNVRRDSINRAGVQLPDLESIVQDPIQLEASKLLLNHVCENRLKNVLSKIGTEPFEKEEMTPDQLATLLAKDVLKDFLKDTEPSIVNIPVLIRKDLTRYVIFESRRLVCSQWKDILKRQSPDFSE

[7] = target: T7, A1Δ (L23 deletion);L2 RNA-editing ligase (full length, mature) (Trypanosoma brucei;Trypanosoma brucei, UniProt Q95W15;P86925 196-657+=GASG+696-762;21-416, internal_change|)
T7 sequence 1: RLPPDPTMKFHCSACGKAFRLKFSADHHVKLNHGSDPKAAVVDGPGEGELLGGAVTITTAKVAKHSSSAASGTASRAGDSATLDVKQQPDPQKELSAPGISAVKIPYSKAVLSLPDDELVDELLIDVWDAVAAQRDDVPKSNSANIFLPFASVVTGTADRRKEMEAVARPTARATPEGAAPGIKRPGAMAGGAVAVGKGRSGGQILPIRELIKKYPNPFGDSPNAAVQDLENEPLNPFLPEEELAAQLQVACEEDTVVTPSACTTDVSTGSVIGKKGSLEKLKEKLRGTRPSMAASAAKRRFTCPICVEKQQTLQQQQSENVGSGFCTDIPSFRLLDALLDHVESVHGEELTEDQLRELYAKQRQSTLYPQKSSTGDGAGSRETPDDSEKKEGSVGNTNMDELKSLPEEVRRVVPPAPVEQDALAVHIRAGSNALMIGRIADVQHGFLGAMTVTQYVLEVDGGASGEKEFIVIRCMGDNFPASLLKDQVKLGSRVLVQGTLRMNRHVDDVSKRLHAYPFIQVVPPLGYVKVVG
T7 sequence 2: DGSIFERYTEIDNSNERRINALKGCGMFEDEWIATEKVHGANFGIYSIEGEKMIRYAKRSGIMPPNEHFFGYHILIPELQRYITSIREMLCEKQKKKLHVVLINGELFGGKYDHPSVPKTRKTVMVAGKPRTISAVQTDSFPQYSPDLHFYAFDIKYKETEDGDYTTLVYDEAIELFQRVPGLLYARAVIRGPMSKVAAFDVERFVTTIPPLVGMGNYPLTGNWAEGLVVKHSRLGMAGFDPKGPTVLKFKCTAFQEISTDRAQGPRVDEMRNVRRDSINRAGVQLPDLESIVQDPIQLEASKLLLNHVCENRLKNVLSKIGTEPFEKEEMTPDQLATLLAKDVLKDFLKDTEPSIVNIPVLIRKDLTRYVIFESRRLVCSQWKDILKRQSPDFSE

L2 NTase domain = target: T8, L2 NTase domain (Trypanosoma brucei, UniProt P86925 21-285)
T8 sequence: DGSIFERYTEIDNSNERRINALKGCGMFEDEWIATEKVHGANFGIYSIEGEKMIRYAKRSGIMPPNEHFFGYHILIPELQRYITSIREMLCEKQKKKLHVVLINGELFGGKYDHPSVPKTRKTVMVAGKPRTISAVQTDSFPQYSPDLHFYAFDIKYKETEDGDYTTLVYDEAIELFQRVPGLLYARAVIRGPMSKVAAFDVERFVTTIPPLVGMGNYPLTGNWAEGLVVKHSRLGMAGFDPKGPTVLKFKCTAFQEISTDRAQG

B1: 26-mer nicked dsRNA (dsRNA)
RNA 1: AUGAGACGUAGGUU
RNA 2: UUAUCGGAGUUC
RNA 3: GAACUCCGAUAAAACCUACGUCUCAU
binding result [1]: no binding
binding result [2]: no binding
binding result [3]: binds
binding result [4]: no binding
binding result [5]: no binding
binding result [6]: no binding
binding result [7]: binds
binding result (L2 NTase domain): no binding
